We go through one protein from doi:10.1101/2022.11.07.515376 (bioRxiv, 2022).

In general, stoichiometry N refers to a count of units in the complex or per binding partner. A word on the Kd: it is a measure of binding affinity in units of concentration. Read a low Kd as a tighter complex.

The data set “SEC” deals with the molecule itself. Put plainly: SEC. On the technique in general: SEC sorts molecules by how far they enter the pores of the column.
The data set “AUC” deals with the molecule itself. Kind of data set: AUC.
The data set “ITC” deals with the molecule itself. Kind of data set: ITC. (In general: Isothermal titration calorimetry measures the heat released or taken up as one component is titrated into another.)

B1: MSMEG_2027, full-length (as used in the solution studies) (enzyme)
chain: MTDAELSPTDWVREQTERILEQGTTDGVHVLDRPIVLFTTTGAKSGKKRYVPLMRVEENGKYAMVASKGGDPKHPSWYFNVKANPTVSVQDGDKVLPDRTARELEGEEREHWWKLAVEAYPPYAEYQTKTDRLIPVFIVE
With B1, the “stoichiometry N” value in “SEC” amounted to 2. Also, the Kd was roughly 8 µM in the data set “AUC” and roughly 1.2 µM in the data set “ITC”.
